Laboratory results as given in article PMC3950705.

T1: hRev1 330-833 (core polymerase domain) (human, UniProt Q9UBZ9 330-833)
T1 sequence: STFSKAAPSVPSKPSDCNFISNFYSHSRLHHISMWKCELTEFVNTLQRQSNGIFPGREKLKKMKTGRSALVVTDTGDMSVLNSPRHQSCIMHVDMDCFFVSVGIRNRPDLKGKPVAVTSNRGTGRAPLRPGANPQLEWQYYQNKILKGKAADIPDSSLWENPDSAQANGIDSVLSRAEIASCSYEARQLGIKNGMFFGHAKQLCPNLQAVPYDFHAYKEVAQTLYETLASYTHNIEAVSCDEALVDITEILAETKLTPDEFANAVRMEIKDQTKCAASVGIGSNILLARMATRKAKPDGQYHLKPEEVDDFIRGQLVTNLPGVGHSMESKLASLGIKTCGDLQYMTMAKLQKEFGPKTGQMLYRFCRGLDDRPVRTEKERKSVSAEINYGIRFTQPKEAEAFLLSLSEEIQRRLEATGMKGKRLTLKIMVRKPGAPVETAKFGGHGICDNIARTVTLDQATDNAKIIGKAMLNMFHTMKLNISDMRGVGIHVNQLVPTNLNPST

B1: ss-non-G4 DNA 28-mer (ssDNA)
DNA: TATGTGACTATGCTGGGTAGGGGAGGAT
B2: ss-G4 DNA 28-mer (structured_DNA)
DNA: TGGGTGGGTAGGGTGGGTAGGGGAGGAT
B3: FAM/Dab 18/42-mer G4 DNA (mixed)
DNA 1: TGAGGGTGGGTAGGGTGGGTGCGTCTGCGGCTGGCTCGAGGC
DNA 2: GCCTCGAGCCAGCCGCAG
B4: FAM/Dab 42-mer ss-G4 DNA (Myc2345 G14/23T) (structured_DNA)
DNA: B3 DNA 1
B5: 23/42-mer Myc2345 G14/23T primer-template (mixed)
DNA 1: B3 DNA 1
DNA 2: GCCTCGAGCCAGCCGCAGACGCA
B6: 11/28-mer primer-template G4 DNA (mixed)
DNA 1: TGGGTGGGTAGGGTGGGTAGGGGAGGAT
DNA 2: ATCCTCCCCTA
B7: 11/28-mer primer-template non-G4 DNA (mixed)
DNA 1: TATGTGACTATGCTGGGTAGGGGAGGAT
DNA 2: ATCCTCCCCTA

Experiments:
[1] = target: T1, hRev1 330-833 (core polymerase domain); test: fluorescence polarization
[2] = target: T1, hRev1 330-833 (core polymerase domain); test: stopped-flow fluorescence quenching
[3] = target: T1, hRev1 330-833 (core polymerase domain); test: stopped-flow fluorescence quenching; remark: listed apart in the source
[4] = target: T1, hRev1 330-833 (core polymerase domain); test: DMS footprinting

Binder	Kd [1]	other results
B1	0.0657 ± 0.0088 µM	–
B2	0.0157 ± 0.0087 µM	–
B3	–	binding result [2]: binds
B4	–	binding result [3]: binds
B5	–	binding result [4]: binds
B6	0.0084 ± 0.0025 µM	–
B7	0.129 ± 0.02 µM	–
